# Measured values published in paper PMC13043311, “2′-O-Methyl-guanosine RNA fragments antagonize TLR7 and TLR8 to limit autoimmunity”.
# Numbering of substitutions follows the chain as printed.
# Assays:
# Details in all cases: protein: recombinant; chain copies: 2; single-stranded
# [1] = target: T1, TLR7 F507L (Macaca mulatta, UniProt B3Y653 27-839, F507L); assay: SPR; mean computed from runs 16±2, 18±2, 20±6; SPR with recombinant TLR7/TLR8; buffer, pH and temperature not in the material
# T1 sequence: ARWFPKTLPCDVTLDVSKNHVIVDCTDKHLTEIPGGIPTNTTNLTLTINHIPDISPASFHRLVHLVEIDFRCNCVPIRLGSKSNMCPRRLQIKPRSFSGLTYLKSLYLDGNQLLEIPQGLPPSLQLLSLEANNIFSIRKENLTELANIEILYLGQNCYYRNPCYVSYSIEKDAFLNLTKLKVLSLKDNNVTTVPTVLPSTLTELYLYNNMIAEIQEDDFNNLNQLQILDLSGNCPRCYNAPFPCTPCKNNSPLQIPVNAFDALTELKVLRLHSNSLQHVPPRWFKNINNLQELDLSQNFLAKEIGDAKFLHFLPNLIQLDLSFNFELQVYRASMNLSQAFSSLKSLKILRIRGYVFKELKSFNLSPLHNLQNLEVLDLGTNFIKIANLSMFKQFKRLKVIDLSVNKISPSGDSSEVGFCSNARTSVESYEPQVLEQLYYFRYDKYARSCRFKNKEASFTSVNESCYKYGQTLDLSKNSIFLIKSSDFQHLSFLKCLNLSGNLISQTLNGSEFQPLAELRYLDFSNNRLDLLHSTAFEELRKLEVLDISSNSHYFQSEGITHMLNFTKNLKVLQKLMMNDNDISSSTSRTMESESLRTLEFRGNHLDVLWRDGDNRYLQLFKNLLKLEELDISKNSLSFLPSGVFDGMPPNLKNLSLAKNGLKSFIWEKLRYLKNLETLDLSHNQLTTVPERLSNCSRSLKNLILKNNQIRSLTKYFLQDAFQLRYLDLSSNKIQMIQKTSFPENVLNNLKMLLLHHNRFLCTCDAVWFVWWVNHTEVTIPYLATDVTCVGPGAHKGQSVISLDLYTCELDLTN
# [2] = target: T2, TLR7 S530A (Macaca mulatta, UniProt B3Y653 27-839, S530A); assay: SPR; mean computed from runs 0.1±0.02, 0.2±0.04, 0.2±0.06; SPR with recombinant TLR7/TLR8; buffer, pH and temperature not in the material
# T2 sequence: T1 sequence with L481F, S504A
# [3] = target: T3, TLR7 T406S (Macaca mulatta, UniProt B3Y653 27-839, T406S); assay: SPR; mean computed from runs 0.5±0.09, 0.6±0.1, 0.6±0.1; SPR with recombinant TLR7/TLR8; buffer, pH and temperature not in the material
# T3 sequence: T1 sequence with T380S, L481F
binder,measurement,setting,value
"GUC (XNA, 2'-OMe G1, RNA U2 C3; phosphorothioate linkages) [mGrUrC PS]",Kd,[1],18000 nM
same,Kd,[2],170 nM
same,Kd,[3],570 nM
